The values below come from article doi:10.1101/2021.05.19.444868.

In the assay the target is trimeric post-fusion hMPV B2 F protein (trypsinized) (human metapneumovirus (hMPV), subgroup B2 | T4 bacteriophage). Kind of assay: SEC.

Take “trimeric post-fusion hMPV B2 F protein (trypsinized) (natural protein)”: the stoichiometry N was 3.
